Measurements published in patent US20110300138A1 (published 2011).

B1: K1-70 IgG (antibody, V domains shown)
VH: EVQLVQSGAEVKKPGQSLKISCKASGYSLTDNWIGWVRQKPGKGLEWMGIIYPGDSDTRYSPSFQGQVTISADKSINTAYLQWSSLKASDTAIYYCVGLDWNYNPLRYWGPGTLVTVSS
VL: QSVLTQPPSVSAAPGQKVTISCSGSSSDIGSNYVSWYQQFPGTAPKLLIYDNNKRPSAIPDRFSGSKSGTSATLGITGLQTGDEADYYCGTWDSRLGIAVFGGGTQLTVLG
notes: Human IgG1 lambda purified from hetero-hybridoma supernatant; also called human monoclonal autoantibody K1-70
B2: K1-70 Fab (Fab, V domains shown)
VH: B1 VH
VL: B1 VL
modifications: N-terminus blocked; deblocked with pyroglutamate aminopeptidase for Edman sequencing
B3: K1-70 IgG (antibody, V domains shown)
VH: B1 VH
VL: B1 VL
modifications: N-terminus blocked; deblocked with pyroglutamate aminopeptidase for Edman sequencing
notes: Human IgG1 lambda purified from hetero-hybridoma supernatant; also called human MAb K1-70
B4: K1-18 IgG (antibody, V domains shown)
VH: EVQLVQSGAEVKKPGESLKISCKGSGYSFTNYWIGWVRQMPGKGLEWMGIIYPYDSDTRYSPSFEGQVTISADKSIRTAYLHWSSLKASDTAMYYCVRPRDGSYPYDAFDIWGQGTMVTVSS
VL: EIVLTQSPGTLSLSPGERATLSCRASQSVSNNYLAWYQQKPGQAPRLLIYGASSRATGIPDRFSGSGSGTDFTLTISRLEPEDFAVYYCQHCGSSLRAFGQGTKVEIKR
notes: Human IgG1 kappa purified from hetero-hybridoma supernatant; also called human monoclonal autoantibody K1-18
B5: K1-18 IgG (human monoclonal TSHR autoantibody with stimulating activity) (antibody, V domains shown)
VH: B4 VH
VL: B4 VL
notes: IgG1 kappa purified from hetero-hybridoma supernatant; also called stimulating MAb K1-18 (IgG1 kappa)
B6: K1-18 Fab (Fab, V domains shown)
VH: B4 VH
VL: B4 VL
B7: K1-18 Fab (Fab, V domains shown)
VH: B4 VH
VL: B4 VL
B8: K1-18 Fab (Fab, V domains shown)
VH: B4 VH
VL: B4 VL
notes: also called Fab of K1-18

Experiments:
[1] = molecular target: TSHR260-AP (fusion protein consisting of a fragment of human TSHR, amino acids 22-260, with alkaline phosphatase) (human); test: bridging ELISA: full length TSHR on wells, TSHR260-AP in liquid phase; IgG 0.005 µg/mL in HBD serum
[2] = molecular target: TSHR260-AP (fusion protein consisting of a fragment of human TSHR, amino acids 22-260, with alkaline phosphatase) (human); test: bridging ELISA: full length TSHR on wells, TSHR260-AP in liquid phase; IgG 0.01 µg/mL in HBD serum
[3] = molecular target: TSHR260-AP (fusion protein consisting of a fragment of human TSHR, amino acids 22-260, with alkaline phosphatase) (human); test: bridging ELISA: full length TSHR on wells, TSHR260-AP in liquid phase; IgG 0.05 µg/mL in HBD serum
[4] = molecular target: TSHR260-AP (fusion protein consisting of a fragment of human TSHR, amino acids 22-260, with alkaline phosphatase) (human); test: bridging ELISA: full length TSHR on wells, TSHR260-AP in liquid phase; IgG 0.1 µg/mL in HBD serum
[5] = molecular target: TSHR260-AP (fusion protein consisting of a fragment of human TSHR, amino acids 22-260, with alkaline phosphatase) (human); test: bridging ELISA: full length TSHR on wells, TSHR260-AP in liquid phase; IgG 0.5 µg/mL in HBD serum
[6] = molecular target: TSHR260-AP (fusion protein consisting of a fragment of human TSHR, amino acids 22-260, with alkaline phosphatase) (human); test: bridging ELISA: full length TSHR on wells, TSHR260-AP in liquid phase; IgG 10 µg/mL in HBD serum
[7] = molecular target: TSHR260-AP (fusion protein consisting of a fragment of human TSHR, amino acids 22-260, with alkaline phosphatase) (human); test: bridging ELISA: full length TSHR on wells, TSHR260-AP in liquid phase; IgG 1 µg/mL in HBD serum
[8] = molecular target: T1, thyroid stimulating hormone receptor (TSHR), full length human (human, UniProt P16473 22-764); test: 125I-K1-18 Fab competition, TSHR coated tubes; 1 µg/mL in assay buffer
T1 construct: TSHR coated on plastic tubes; also called TSH receptor
Description: (§1) Binding inhibition assays were carried out using TSHR coated tubes as described in WO2004/050708A2. […] After aspiration, the tubes were washed and 100 μL of ¹²⁵I-labelled protein (5×10⁴ cpm) added and incubated for 1 hour at room temperature with shaking. The tubes were then aspirated, washed and counted in a gamma counter. Inhibition of labelled protein binding was calculated as 100×[1−(cpm bound in the presence of test material/cpm bound in the presence of control material)].

[9] = molecular target: T1, thyroid stimulating hormone receptor …; test: 125I-K1-18 Fab competition, TSHR coated tubes; 100 µg/mL in assay buffer
Description: as §1

[10] = molecular target: T1, thyroid stimulating hormone receptor …; test: 125I-K1-18 Fab competition, TSHR coated tubes; 30 µg/mL in assay buffer
Description: as §1

[11] = molecular target: T1, thyroid stimulating hormone receptor …; test: 125I-K1-18 Fab competition, TSHR coated tubes; 30 µg/mL in HBD
Description: as §1

[12] = molecular target: T1, thyroid stimulating hormone receptor …; test: 125I-K1-18 Fab competition, TSHR coated tubes; 3 µg/mL in assay buffer
Description: as §1

[13] = molecular target: T1, thyroid stimulating hormone receptor …; test: 125I-K1-18 Fab competition, TSHR coated tubes; 100 µg/mL in HBD
Description: as §1

[14] = molecular target: T1, thyroid stimulating hormone receptor …; test: 125I-K1-18 Fab competition, TSHR coated tubes; 10 µg/mL in assay buffer
Description: as §1

[15] = molecular target: T1, thyroid stimulating hormone receptor …; test: 125I-K1-18 Fab competition, TSHR coated tubes; 0.1 µg/mL in assay buffer
Description: as §1

[16] = molecular target: T1, thyroid stimulating hormone receptor …; test: 125I-K1-18 Fab competition, TSHR coated tubes; 10 µg/mL in HBD
Description: as §1

[17] = molecular target: T1, thyroid stimulating hormone receptor …; test: 125I-K1-18 Fab competition, TSHR coated tubes; 0.1 µg/mL in HBD
Description: as §1

[18] = molecular target: T1, thyroid stimulating hormone receptor …; test: 125I-K1-18 Fab competition, TSHR coated tubes; 1 µg/mL in HBD
Description: as §1

[19] = molecular target: T1, thyroid stimulating hormone receptor …; test: 125I-K1-18 Fab competition, TSHR coated tubes; 3 µg/mL in HBD
Description: as §1

[20] = molecular target: T2, TSHR260 (human, UniProt P16473 22-260); test: Scatchard analysis, TSHR260 coated tubes (mean±SD, n=3)
T2 construct: Expressed in insect cells; coated on tubes or wells by way of a mouse TSHR MAb (14C4 F(ab')2 in the stability ELISA); also called TSHR fragment of amino acids 22-260

[21] = molecular target: T3, full length human TSHR, detergent-solubilised, coated on tubes or ELISA plate wells (human, UniProt P16473 22-764); test: Scatchard analysis, full length TSHR coated tubes (mean±SD, n=3)
T3 construct: Full length receptor expressed in CHO cells, solubilised with detergent and held on the plastic by a mouse MAb to the C-terminus; The leader 1-21 is stated for the TSHR260 construct of the same receptor; also called TSH receptor; TSHR (full length)

[22] = molecular target: T3, full length human TSHR, …; test: Scatchard analysis, 125I-labelled antibody on full length TSHR coated tubes (mean±SD, n=3)
[23] = molecular target: T4, human TSH receptor, full length, detergent-solubilised, coated on tubes or ELISA plate wells (human, UniProt P16473 22-764); test: TSHR binding affinity (summary table; Scatchard analysis, TSHR coated tubes)
T4 construct: Full length recombinant receptor expressed in CHO cells, solubilised and coated via a C-terminal antibody; also called wild type TSHR; full length TSHR

Molecule | Inhibition of binding (%) [8] | Inhibition of binding (%) [9] | Inhibition of binding (%) [10] | Inhibition of binding (%) [11] | Inhibition of binding (%) [12] | Inhibition of binding (%) [13] | Inhibition of binding (%) [14] | Inhibition of binding (%) [15] | Inhibition of binding (%) [16] | Inhibition of binding (%) [17] | Inhibition of binding (%) [18] | Inhibition of binding (%) [19] | further results
9D33 IgG (mouse TSHR blocking MAb) (antibody) | – | – | – | – | – | – | – | – | – | – | – | – | Mean absorbance at 405 nm (absorbance at 405 nm) [1]: 0.006; Mean absorbance at 405 nm (absorbance at 405 nm) [2]: 0.011; Mean absorbance at 405 nm (absorbance at 405 nm) [3]: 0.056; Mean absorbance at 405 nm (absorbance at 405 nm) [4]: 0.102; Mean absorbance at 405 nm (absorbance at 405 nm) [5]: 0.273; Mean absorbance at 405 nm (absorbance at 405 nm) [6]: 0.481; Mean absorbance at 405 nm (absorbance at 405 nm) [7]: 0.329
B1 | 94% | 94.8% | 95.1% | 95.5% | 94.5% | 95.6% | 94.6% | 73.8% | 95.8% | 60.1% | 94% | 95.3% | –
B2 | – | – | – | – | – | – | – | – | – | – | – | – | Ka [20]: 9.3e+09 M⁻¹; Ka [21]: 2.3e+10 M⁻¹
B3 | – | – | – | – | – | – | – | – | – | – | – | – | Ka [20]: 3.1e+10 M⁻¹; Ka [22]: 3.9e+10 M⁻¹
B4 | 93.3% | 94.8% | 94.5% | 95.7% | 93.7% | 96% | 94.8% | 78.5% | 94.5% | 57% | 91.9% | 94% | –
B5 | – | – | – | – | – | – | – | – | – | – | – | – | Ka [23]: 7e+09 M⁻¹
B6 | 81.5% | 86.2% | 84.2% | 82.6% | 81.1% | 84.8% | 83.5% | 62.5% | 81.6% | 43.9% | 79.2% | 82.8% | –
B7 | – | – | – | – | – | – | – | – | – | – | – | – | Ka [21]: 1.8e+09 M⁻¹
B8 | – | – | – | – | – | – | – | – | – | – | – | – | Ka [23]: 1.3e+09 M⁻¹
